Reference: the DeepSol protein solubility set

test: soluble on expression in E. coli; label from the status in PepcDB or PDB records

Sequence	soluble on expression in E. coli
TDSTGIDLHEFLVNTLKKNPRDRMMLLKLEQEILEFINDNNNQFKKFPQMTSYHRMLLHRVAAYFGMDHNVDQTGKAVIINKTSNTRIPEQRFSEHIKDEKNTEFQQRFIL	soluble
TEQPCVEKAPAYQRFHALAQPGLPGLVLPYKYQVLVEMFRSMDTIVSMLHNRSETVTFAKVKQGVQEMMRKRFEERNVGQIKTVYPTSYRFRQECNVPTFKDSIKRSDYQLTIEPLLGQEAGGATQLTATCLLQRRQVFRQNLVERVKEQHKVFLASLNPPMAVPDDQLTRWHPRFNVDEVPDIEPAELPQPPVTEK	soluble
TETSPDKWLIDGDTPLDEVERAIGYELPEGDYETISGLLFDHANALLKTGDVIEIPLDFEPEDYLNNTSPTQRILRITVLEVERNVPVKLALALLEDHPDNHPAPKENR	soluble
THALEPSKPLAHDEKPITIEVVSMDWKWFFIYPEQGIATVNEIAFPANTPVYFKVTSNSVMHSFFIPRLGSQIYAMAGMQTRLHLIANEPGTYDGICAEICGPGHSGMKFKAIATPDRAAFDQWVAKAKQSPNTMSDMAAFEKLAAPSEYNQVEYFSNVKPDLFADVINKFMAHGKSMDMTQPEGEHSAHEGMEGMDMSHAESAH	soluble
TKDFAFDLNVNMAHNVSKVKELAPEENVNYMFFNGDGNFPVKVGTRAGHKLGEIYATSLYKRNENGDIIVNENGLPMTVTNESEYVNKPIGNIQPKLTMSVSPTFTYKGITLSALFDMKFGGDIFSYSEMLATGNGLAKRTLNRGEENNYMMVFPGVTESGEVNTKQVSASEYYGALQAEDFIYDASFIKLKELSIGYSFPSSMLKKTPVNSLNVSFVARNLCYLMKHTPGTSPEGGYDTTMFSQAIDYASLPFTRTFGISINLGF	not soluble
TLYDKVWDQHKVTTLPNGQDQLFVGLHLIHEVTSPQAFGMIKERGLEVARPDLTHATVDHIVPTANQDRPYSDDAAETMMAELEENVRDAGIQFSDPTTGDQGIVHVIGPEQGITQPGKTIVCGDSHTSTHGAFGALAFGIGTSQIRDVLATQTIAMEKQKV	not soluble
TPDADKKGAVFALDQEPEAQAAVVALDPLSGAVKAMVGGYDFRKSQFNRALQAKRNPGSAFKPLIYAAALDKGITPATIFDDSPVEYESGKEKAWKPKNYDNIYRGNVTMREALTNSINVVSVKILEQIGVDYAIEYAKKLGITSPLSANLTLALGSSSLTPLELTSAYAVFASGGYRTTPYFVTRVEDAEGRTLEETAPPVIPRFSVMTSAESSPLEASPAPPATAGDSASTAVPVIAPETAYIMTNLMESVVQSGTGQRARAVGRPVAGKTGTTNDMKDAWFVGYIPQLVAGVWVGYDQERSLGAGGSGGQAAAPIWTEFMRRAVAGIPSRDF	not soluble
TPNKEDYLKCLYELGTRHNKITNKEIAQLMQVSPPAVTEMMKKLLAEELLIKDKKAGYLLTDLGLKLVSDLYRKHRLIEVFLVHHLGYTTEEIHEEAEVLEHTVSDHFVERLDQLLDYPKACPHGGTIPAKGELLVEKHKLTLEEAKEKGDYILARVHDNFDLLTYLERNGLQVGKTIRFLGYDDFSHLYSLEVDGQEIQLAQPIAQQIYVEKI	soluble
TPSRVEAFDNSNIHGTDPVSAMVTFLDGKPSKNDYRKYKIKTVEGPDDYATMREVIRRRYWRVLKEGLPMPDLILIDGGKGQIDSAKDVLTNELGLDIPVAGLAKDDKHRTSQLLFGDPLEIVPLERNSQEFYLLQRMQDEVHRFAITFHRQLRSKTGFQSILDGIPG	not soluble
TPVLIRQLANKDRAREFSFLKDLGKDIAHFRFLGSFSTHAKVHDQLMDIDLHNRMAYIALAYDNDELTEIGVARYGAYEGDAHCEFAIAVSEKWQRRGVATALLKRLMETATKEGFSKISSMDASKNLAMDGLATSMGFTCRVDEKHGPRIFHEYVLVQ	not soluble
TQHIESHTHVVSLEEIPVERNLAQLTGWTEGAPVWRLVRQREIEGEVDILDIDYLIKEIVPELPKHRAEDSIFDYLENDLGLAISYAQKEITVEPLTEMDKQLIGEVEGNHVVVVRSIMNLEDTRCFGYTESRHRLNKFKFVEFARRRKL	soluble
TQLHATRQAIVEAGQAIKMDKNGVQKLPVLNIYNEQQKWQKHQLMVENLPLNQVLQELDRNYKGKIIFNDAALQHVRVNAVLPLDQTTESLKLLATVFPDLKIKQIMPFVVMVSLK	not soluble
TQPPQPDAQSPYSKRYDPTKDYPLSSPAGGMNNFSDVEPRGRLDEKAATDRADALAKNAQRNIEQKGIDSPEQYGRNYKQGTPFGERVKNLGEDIGSSANELGEGVVKGTQRGIENLKGNTQNAAEDATKNVQRGAEDAGRNVRRTADDAGNAVKRAVD	not soluble
TSTDAAGGDSYRVGINQLVQHPALDAATTGFKEAFEEAGVDVTFDEQNANGEQGTALTISQQFASDNLDLVLAVATPAAQATAQNITDIPVLFTAVTDAVSAELVDSNEAPGGNVTGTSDIAPIEQQLELLQQLVPDAKSIGIVYASGEVNSQVQVDEVTKAAEPLGLSVNTQTVTTVNEIQQAVEALGDVDVIYVPTDNMVVSGISSLVQVAEQKQIPVIGAESGTVEGGALATLGIDYTELGRQTGEMALRILQDGEDPATMPVETATEFTYVINEDAAERQGVEIPQEILDKAERV	not soluble
TVGCVAVDSHGNLASATSTGGLVNKMVGRIGDTPLIGAGTYANELCAVSATGKGEEIIRATVARDVAALMEFKGLSLKEAADFVIHERTPKGTVGLIAVSAAGEIAMPFNTTGMFRACATEDGYSEIAIWPTT	soluble
TVRVRLAPSPTGNLHIGTARTAVFNWLYARHRGGKFILRIEDTDRERSRPEYTENILEGLQWLGLTWDEGPYFQSDRLDLYRQAIQTLLDKGLAYYCYCTPEELEALRAEQKAKGQAPRYDNRHRHLTPEEQAAFEAAGRTPVIRFKIEDDRQIEWQDLVRGRVSWQGADLGGDMVIARAAPRGEIGYPLYNLVVVVDDIAMGITDVIRGEDHIGNTPKQILLYEALGATPPNFAHTPLILNSTGQKLSKRDGVTSISDFRAMGYLAPALANYMTLLGWSPPEGVGELFTLDLAAKHFSFERINKAGARFDWDKLNWLNRQYIQQLEPEEFLAELIPLWQGAGYAFDEERDRPWLFDLAQLLQPGLNTLREAIDQGAVFFIPSVTFDSEAMAQLGQPQSATILAYLLEHLPAEPALTVAMGQQLIQQAAKAAGVKKGATMRTLRAALTGAVHGPDLMAAWQILHQRGWDEPRLAAALKQAQTTSLEHHHHHH	soluble
VADEYKWALASIYETDDEWEAAFEDVQAELDALNDYEGRLTEDGETLLAALELRDAVYRDAKTVSAYASMRSDEDTRDQEYQALQARGASLMTDVSSATSFFDPELQACTREQLQSMIEETPELAAYEHYFDDVLRMKPHTRSAEVEGLLSELGEVFGAPSDAYNMLTDADLEFPTVEDPAGDAVEISQSN	soluble
VADRYAVYWNSSNPRFQRGDYHIDVCINDYLDVFCPHYEDSVPEDKTERYVLYMVNFDGYSACDHTSKGFKRWECNRPHSPNGPLKFSEKFQLFTPFSLGFEFRPGREYFYISSAIPDNGRRSCLKLKVFVRPTNSCM	soluble
VAKRLDLTDVNIYYGSFHAVADVSLAILPRSVTAFIGPSGCGKTTVLRTLNRMHEVIPGARVEGAVLLDDQDIYAPGIDPVGVRRAIGMVFQRPNPFPAMSIRNNVVAGLKLQGVRNRKVLDDTAESSLRGANLWDEVKDRLDKPGGGLSGGQQQRLCIARAIAVQPDVLLMDEPCSSLDPISTMAIEDLISELKQQYTIVIVTHNMQQAARVSDQTAFFNLEAVGKPGRLVEIASTEKIFSNPNQKATEDYISGRFG	not soluble
VANITFSSPVMAKDVTVYAVAGDRGTILAVAKSHSIPIPFDCQDGECGSCLVQVEHFNPKAKAAVALTEKEKEVLRQLGKITKEEIVDAEVNDIPPRYRLACQCFVRNEDILVKFEGDKTKPQRLAVTPAAAHYKGGMEINTPQEFFSYAAKVEEDAALHYDSLAKAMADAGNAPVAKLFAQLAEFSRLHLAEVKSRAGSIDLSKSVPPDYAWPDHATPERAAVWASDTTLTRLGALKAALQGERRGYEFYRAVEATTKSSEVAAAAKEFVNEEAEHVRILEAWITQEEWSLKHAAKAAENA	not soluble
VDKRESYTKEDLLASGRGELFGAKGPQLPAPNMLMMDRVVKMTETGGNFDKGYVEAELDINPDLWFFGCHFIGDPVMPGCLGLDAMWQLVGFYLGWLGGEGKGRALGVGEVKFTGQVLPTAKKVTYRIHFKRIVNRRLIMGLADGEVLVDGRLIYTASDLKVGLFQDTSAF	soluble
VEPVDPCFRANCEYQCQPLNQTSYLCVCAEGFAPIPHEPHRCQLFCNQTACPADCDPNTQASCECPEGYILDDGFICTDIDECENGGFCSGVCHNLPGTFECICGPDSALAGQIGTDCDSG	soluble
VFILPDCNPVLKFISSARERLLIIAPYIDFRWYKDDGLLEAIKGAKESGAEVKVVLNAKYAKEEAVSTLRKEGVKVELIDNLHGKAIVSDKRLLITSANMNMHGLKLNREIGVIINNPEMADAVIKEFEGGEVTPLD	not soluble
VIEPARGLGDGNIERKIRGLLDSWMTWNHSFQGSCMFLDAWNDAADKNCPLQAALRKAIDTWLSYLEIQIAKGKENQEFISDLDTRQATFDLYGQYLSAHVFYSIKGEEESLRLFWQGIDNLLARWRG	not soluble
VIIPDINLLLYAVITGFPQHRRAHAWWQDTVNGHTRIGLTYPALFGFLRIATSARVLAAPLPTADAIAYVREWLSQPNVDLLTAGPRHLDIALGLLDKLGTASHLTTDVQLAAYGIEYDAEIHSSDTDFARFADLKWTDPLRE	not soluble
VIRRSSLSSTESEIRMDATTVSTTDDIWSPSWDDPFEPTTDHDDEFAELTDALRAVQEAVTRSRPTPEAAGRAARTLRDLAARLAAFEVGEDEQISGRRWDLAGRGQTLTPALHLDEVTENRARGHVVVGRFHSGRYAMNGGVTPLIFDEILARLANSCGRPWARTAYLHVNYRAPAPLDVELRVEAEFAGQDGRKRFMRGAMYHGDVLVADVEGLWIELKPEQTQNVSLAVGWGAEENS	not soluble
VKIDNKTFQVNGRVLLDDLTEEFGIEFDDSEDIDTIGGWLQSRNTNLQKDDYVDTTYDRWVVSEIDNHQIIWVILNYEFNEARPTIGQSDEDEKSE	not soluble
VKKIKDIGEVAGGSTPSTKIKEYWGGDIPWITPKDLANYEYIYISRGERNITEKAVKECSLRIFPKGTILLTSRAPIGYVAIAKNPLTTNQGFRNIIPKDGVVSEYLYYLFKTKTMSEYLKDISGGSTFPELKGSTLKEVEIPYPSPEEQQKIATVLSYFDD	not soluble
VLIARRPEDKHQGGLWEFPGGKVEDGEPVRAALARELEEELGIRVERARPLIQVRHDYADKHVLLDVWEVDGFSGEAHGAEGQPLAWVEPRELADYEFPAANAPIVQAARLPAHYLITPDGLEPGELISGVRKAVEAGIRLIQLRAPNMFSPEYRDLAIDIQGLCAGKAQLMLKGPLEWLGDFPAAGWHLTSAQLRKYASAGRPFPEGRLLAASCHDAEELALAASMGVEFVTLSPVQPTESHPGEPALGWDKAAELIAGFNQPVYLLGGLGPQQAEQAWEHGAQGVAGIRAFWPGGL	not soluble
